# Data as given in patent publication US20240190939A1.
# Experiments:
# recombinant CD155 = assay: ELISA: CD155/PVR capture, Fc-HRP detection
# CD155PVR-His [1] = assay: ELISA: 'CD115/PVR Capture' as printed (legend: CD155PVR-His), Fc-HRP detection
# CD47-His = assay: ELISA: hCD47 His capture, IgG HRP detection
# [2] = molecular target: mouse LTbR on CHO-K1 cells (mouse) (UniProt P50284); assay: flow cytometry on CHO-K1 cells expressing murine LTbR (the sentence names the second value 'for mCD172a(SIRPα)')
# [3] = molecular target: mouse LTbR on CHO-K1 cells (mouse) (UniProt P50284); assay: flow cytometry on CHO-K1 cells expressing murine LTbR
# CD155PVR-His [4] = assay: ELISA: CD155-His capture, IgG detection
# Sequence of mouse LTbR on CHO-K1 cells (mouse) (P50284 31-415): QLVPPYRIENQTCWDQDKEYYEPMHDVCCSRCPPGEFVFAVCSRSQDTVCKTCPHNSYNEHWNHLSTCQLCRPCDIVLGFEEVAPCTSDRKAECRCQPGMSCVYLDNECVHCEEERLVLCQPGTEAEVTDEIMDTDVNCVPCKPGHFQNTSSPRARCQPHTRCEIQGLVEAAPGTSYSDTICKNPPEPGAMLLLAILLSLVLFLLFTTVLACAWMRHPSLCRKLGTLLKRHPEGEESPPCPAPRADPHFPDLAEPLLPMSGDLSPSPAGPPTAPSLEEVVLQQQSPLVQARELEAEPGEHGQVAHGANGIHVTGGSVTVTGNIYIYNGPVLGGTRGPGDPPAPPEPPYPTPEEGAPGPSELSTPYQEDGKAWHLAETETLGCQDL
# Sequence of CD47-His (Q61735 19-140): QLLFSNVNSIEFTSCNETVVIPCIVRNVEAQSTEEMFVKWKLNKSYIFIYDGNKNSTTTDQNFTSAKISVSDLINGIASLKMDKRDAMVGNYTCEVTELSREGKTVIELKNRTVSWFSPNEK
substance,measurement,setting,value
TIGIT Std (receptor),EC50 (read off the curve),recombinant CD155,10 nM
same,EC50 (read off the curve),CD155PVR-His [1],10 nM
SIRPa-Fc Std (Fc fusion),EC50 (read off the curve),CD47-His,0.3 nM
murine CD172a(SIRPα)-Fc-LIGHT chimeric protein (from UniProt P97797 32-373) (Fc fusion),EC50,[2],24 nM
murine TIGIT-Fc-LIGHT chimeric protein (from UniProt P86176 29-148) (Fc fusion),EC50,[3],11 nM
TIGIT-Fc Std (Fc fusion),EC50 (read off the curve),CD155PVR-His [4],0.07 nM
